# In article PMC6943125:
# T1: DHX30N (human, UniProt Q7L2E3-3 1-152)
# T1 sequence: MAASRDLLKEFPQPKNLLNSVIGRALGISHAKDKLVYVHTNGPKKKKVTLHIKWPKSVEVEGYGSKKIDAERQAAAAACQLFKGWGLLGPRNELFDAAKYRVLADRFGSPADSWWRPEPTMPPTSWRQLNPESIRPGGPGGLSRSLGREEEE
# B1: 16-bp dsRNA (dsRNA)
# RNA 1: CCAUCCUCUACAGGCG
# RNA 2: CGCCUGUAGAGGAUGG
# B2: 16-nt sense ssRNA (ssRNA)
# RNA: CCAUCCUCUACAGGCG
# B3: 33-bp dsRNA (dsRNA)
# RNA 1: CGAGCUCGCCCGGGGAUCCUCUAGAGUCGACCUGC
# RNA 2: CUGCAGGUCGACUCUAGAGGAUCCCCGGGCGAGCU
# Columns and labels:
# [1] = target: T1, DHX30N; experiment: fluorescence polarization; 30 nM RNA, pH 6.0 NMR buffer; EMSA: 50 mM Tris-HCl pH 7.5, 150 mM NaCl, 10% glycerol, on ice, 1% agarose 4 C; FP and NMR: pH 6.0 NMR buffer (composition not in material); Ni-NTA: 20 mM Na phosphate pH 6.6, 100 mM NaCl, 20 mM beta-mercaptoethanol, 1% glycerol, room temperature; conditions: protein: recombinant
# [2] = target: NS1 RBD (Influenza A virus Ud, UniProt P03495 1-73); experiment: NMR; equimolar dsRNA, pH 6.0 NMR buffer; conditions: protein: recombinant; tags: none (SUMO-His6 cleaved); chain copies: 2
# Sequence of NS1 RBD (P03495 1-73): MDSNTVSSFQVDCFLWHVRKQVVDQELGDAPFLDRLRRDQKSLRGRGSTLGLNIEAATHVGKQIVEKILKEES
binder,measurement,setting,value
B1,Kd,[1]; label: FAM (sense and antisense),~40 nM
B2,Kd,[1]; label: 5' FAM,~500 nM
B3,binding result,[2],binds
